Source: patent US20190359663A1

What was measured:
[1] = target: L-FABP bound to arachidonic acid (human) (UniProt P07148); assay: sandwich ELISA; L-FABP stored at 37 C for two weeks in BSA-containing buffer; sample stored at 4 C = 100 (FIG. 19)
[2] = target: wild type human L-FABP protein (liver-type fatty acid-binding protein) (human) (UniProt P07148); assay: as above
[3] = target: L-FABP bound to oleic acid (human) (UniProt P07148); assay: sandwich ELISA; L-FABP stored at 37 C for two weeks in BSA-containing buffer; sample stored at 4 C = 100 (FIG. 20)
[4] = target: wild type human L-FABP protein (liver-type fatty acid-binding protein) (human) (UniProt P07148); assay: as above
[5] = target: L-FABP M19L/M74L/M113L (human) (UniProt P07148); assay: ELISA (kit not named in this example); OD ratio with and without oxidation treatment with 10 mM AAPH for 1 h at 25 C; FIG. 21
[6] = target: L-FABP WT treated with 0.5 mM AAPH (human) (UniProt P07148); assay: as above
[7] = target: L-FABP WT treated with 4 mM AAPH (human) (UniProt P07148); assay: as above
[8] = target: wild type human L-FABP protein (liver-type fatty acid-binding protein) (human) (UniProt P07148); assay: as above
[9] = target: L-FABP M19L (human) (UniProt P07148); assay: ELISA (kit not named in this example); OD ratio with and without oxidation treatment with 10 mM AAPH for 1 h at 25 C; FIG. 23
[10] = target: L-FABP M19L/M113L (human) (UniProt P07148); assay: as above
[11] = target: L-FABP M19L/M74L/M113L (human) (UniProt P07148); assay: as above
[12] = target: L-FABP WT treated with 0.5 mM AAPH (human) (UniProt P07148); assay: as above
[13] = target: L-FABP WT treated with 4 mM AAPH (human) (UniProt P07148); assay: as above
[14] = target: L-FABP bound to arachidonic acid (human) (UniProt P07148); assay: as above
[15] = target: L-FABP bound to oleic acid (human) (UniProt P07148); assay: as above
[16] = target: wild type human L-FABP protein (liver-type fatty acid-binding protein) (human) (UniProt P07148); assay: as above
[17] = target: L-FABP that had been oxidation-treated with 40 mM AAPH (human) (UniProt P07148); assay: sandwich ELISA (RENAPRO L-FABP Test TMB); L-FABP stored at 37 C, measured every week for two weeks; sample stored at 4 C = 100
[18] = target: wild type human L-FABP protein (liver-type fatty acid-binding protein) (human) (UniProt P07148); assay: as above
[19] = target: L-FABP M19L/M74L/M113L (human) (UniProt P07148); assay: sandwich ELISA (RENAPRO L-FABP test TMB); L-FABP reacted with 0 to 5 mM AAPH for 1 h at room temperature with BSA; untreated sample = 100
[20] = target: wild type human L-FABP protein (liver-type fatty acid-binding protein) (human) (UniProt P07148); assay: as above
[21] = target: L-FABP M19L/M74L/M113L (human) (UniProt P07148); assay: sandwich ELISA (RENAPRO L-FABP Test TMB); L-FABP stored at 25 C with BSA, measured every week for four weeks; sample stored at -80 C = 100
[22] = target: wild type human L-FABP protein (liver-type fatty acid-binding protein) (human) (UniProt P07148); assay: as above
[23] = target: L-FABP M19L/M74L/M113L (human) (UniProt P07148); assay: sandwich ELISA (RENAPRO L-FABP Test TMB); L-FABP stored at 37 C with BSA, measured every week for four weeks; sample stored at -80 C = 100
[24] = target: wild type human L-FABP protein (liver-type fatty acid-binding protein) (human) (UniProt P07148); assay: as above
[25] = target: L-FABP M19L/M74L/M113L (human) (UniProt P07148); assay: sandwich ELISA (RENAPRO L-FABP Test TMB) with 1 mass % BSA; oleic acid added to L-FABP at various concentrations, 1.5 h room temperature; untreated sample = 100
[26] = target: wild type human L-FABP protein (liver-type fatty acid-binding protein) (human) (UniProt P07148); assay: as above
[27] = target: L-FABP M19L/M74L/M113L (human) (UniProt P07148); assay: sandwich ELISA (RENAPRO L-FABP Test TMB) with 1 mass % BSA; arachidonic acid added to L-FABP at various concentrations, 1.5 h room temperature; untreated sample = 100
[28] = target: wild type human L-FABP protein (liver-type fatty acid-binding protein) (human) (UniProt P07148); assay: as above
[29] = target: L-FABP M19L/M74L/M113L (human) (UniProt P07148); assay: sandwich ELISA (RENAPRO L-FABP Test TMB) with 1 mass % BSA; 8-iso-prostaglandin F2α added to L-FABP at various concentrations, 1.5 h room temperature; untreated sample = 100
[30] = target: wild type human L-FABP protein (liver-type fatty acid-binding protein) (human) (UniProt P07148); assay: as above

Substance: labeled antibody of the sandwich ELISA kit RENAPRO L-FABP Test TMB (CMIC HOLDINGS Co., Ltd.)
- ELISA measured value, % of sample stored at 4 C [1]: 99.9 to 100%
- ELISA measured value, % of sample stored at 4 C [2]: 118 to 132%
- ELISA measured value, % of sample stored at 4 C [3]: 100 to 110%
- ELISA measured value, % of sample stored at 4 C [4]: 120 to 130%
- coefficient of change in oxidation (OD ratio, oxidation-treated / not treated) [5]: < 1.3
- coefficient of change in oxidation (OD ratio, oxidation-treated / not treated) [6]: < 1.3
- coefficient of change in oxidation (OD ratio, oxidation-treated / not treated) [7]: < 1.3
- coefficient of change in oxidation (OD ratio, oxidation-treated / not treated) [8]: 1.8
- coefficient of change in oxidation (OD ratio, oxidation-treated / not treated) [9]: < 1.4
- coefficient of change in oxidation (OD ratio, oxidation-treated / not treated) [10]: < 1.4
- coefficient of change in oxidation (OD ratio, oxidation-treated / not treated) [11]: < 1.4
- coefficient of change in oxidation (OD ratio, oxidation-treated / not treated) [12]: < 1.4
- coefficient of change in oxidation (OD ratio, oxidation-treated / not treated) [13]: < 1.4
- coefficient of change in oxidation (OD ratio, oxidation-treated / not treated) [14]: < 1.4
- coefficient of change in oxidation (OD ratio, oxidation-treated / not treated) [15]: < 1.4
- coefficient of change in oxidation (OD ratio, oxidation-treated / not treated) [16]: 1.8
- ELISA measured value (OD 450 nm), % of sample stored at 4 C [17]: 94 to 102%
- ELISA measured value (OD 450 nm), % of sample stored at 4 C [18]: 114 to 130%
- ELISA measured value (OD 450 nm), % of untreated sample [19]: 102 to 107%
- ELISA measured value (OD 450 nm), % of untreated sample [20]: 112 to 121%
- ELISA measured value (OD 450 nm), % of sample stored at -80 C [21]: 101 to 111%
- ELISA measured value (OD 450 nm), % of sample stored at -80 C [22]: 110 to 128%
- ELISA measured value (OD 450 nm), % of sample stored at -80 C [23]: 104 to 113%
- ELISA measured value (OD 450 nm), % of sample stored at -80 C [24]: 117 to 143%
- ELISA measured value (OD 450 nm), % of untreated sample [25]: 92 to 107%
- ELISA measured value (OD 450 nm), % of untreated sample [26]: 100 to 124%
- ELISA measured value (OD 450 nm), % of untreated sample [27]: 88 to 103%
- ELISA measured value (OD 450 nm), % of untreated sample [28]: 104 to 220%
- ELISA measured value (OD 450 nm), % of untreated sample [29]: 96 to 101%
- ELISA measured value (OD 450 nm), % of untreated sample [30]: 95 to 118%
